Experimental findings from patent publication US20210238294A1 (JIANGSU HENGRUI MEDICINE, published 2021) are described below.

B1: Dupilumab (antibody, V domains shown)
VH: EVQLVESGGGLEQPGGSLRLSCAGSGFTFRDYAMTWVRQAPGKGLEWVSSISGSGGNTYYADSVKGRFTISRDNSKNTLYLQMNSLRAEDTAVYYCAKDRLSITIRPRYYGLDVWGQGTTVTVSS
VL: DIVMTQSPLSLPVTPGEPASISCRSSQSLLYSIGYNYLDWYLQKSGQSPQLLIYLGSNRASGVPDRFSGSGSGTDFTLKISRVEAEDVGFYYCMQALQTPYTFGQGTKLEIKR
B2: mouse monoclonal antibody 7B10 (antibody, V domains shown)
VH: QVQLQQPGTELLKPGASVSLSCKASGYTFTSYWMHWVKQRPGQGLEWIGLIHPNSDTTKFSENFKTRATLTIDKSSSTAYMKLSSLTSEDSAVYYCAKSKIITTIVARHWYFDVWGTGTTVTVSS
VL: DIVLTQSPPSLAVSLGQRATISCKASQSVDYGGDSYMNWYQQKLGQPPKVLIYAASNLESGIPARFSGSGSGTDFTLNIHPVEEEDVATYYCQHSNENPPTFGGGTKLEIK
B3: murine monoclonal antibody 25G7 (antibody, V domains shown)
VH: EVQLVESGGGLVKPGGSLKLSCAASGFTFSDYGMHWVRQAPEKGLEWVAFISSGSSIIYYADIVKGRSTISRDNAKNTLFLQMTSLRSEDTAMYYCTRGNKRGFFDYWGQGTILTVSS
VL: QIVLTQSPALMSASPGEKVTMTCNASSSVSYMYWYQRKPRSSPKPWIYLTSNLASGVPVRFSGSGSGTSYSLTISSMEAEDAATYYCQQWRSNPPMLTFGSGTKLEVK
B4: human-mouse chimeric antibody 7B10-C (antibody, V domains shown)
VH: B2 VH
VL: B2 VL
B5: human-mouse chimeric antibody 25G7-C (antibody, V domains shown)
VH: B3 VH
VL: B3 VL
B6: humanized antibody hu7B10 (with VH-b heavy chain and VL-b light chain) (antibody, human IgG1, kappa, V domains shown)
VH: EVQLVQSGAEVKKPGASVKVSCKASGYTFTSYWMHWVRQAPGQGLEWMGLIHPNSDTTKFSENFKTRVTMTIDTSISTAYMELSRLRSDDTAVYYCAKSKIITTIVARHWYFDVWGQGTTVTVSS
VL: DIVLTQTPLSLSVTPGQPASISCKASQSVDYGGDSYMNWYLQKPGQPPQLLIYAASNLESGVPDRFSGSGSGTDFTLKISRVEAEDVGVYYCQHSNENPPTFGGGTKVEIKR
B7: humanized antibody hu25G7 (with VH-c heavy chain and VL-a light chain) (antibody, human IgG4 S228P, kappa, V domains shown)
VH: B3 VH with K13Q, K19R, E42G, T78S, F80Y, T84N, S88A, M93V, I113L, L114V
VL: EIVLTQSPATLSLSPGERATLSCNASSSVSYMYWYQQKPGQAPRLLIYLTSNLASGIPARFSGSGSGTDFTLTISSLEPEDFAVYYCQQWRSNPPMLTFGGGTKVEIKR
B8: affinity-matured humanized antibody hu25G7-A (antibody, human IgG4 S228P, kappa, V domains shown)
VH: B3 VH with K13Q, K19R, E42G, F80Y, T84N, S88A, M93V, I113L, L114V
VL: B7 VL with N24R, S30P, S92A, N93Y
B9: affinity-matured humanized antibody hu25G7-B (antibody, human IgG4 S228P, kappa, V domains shown)
VH: B3 VH with K13Q, K19R, E42G, F80Y, T84N, S88A, M93V, I113L, L114V
VL: EIVLTQSPATLSLSPGERATLSCRASPGVPPLAWYQQKPGQAPRLLIYLASSRPSGIPARFSGSGSGTDFTLTISSLEPEDFAVYYCQQWRSNPPMLTFGGGTKVEIKR

Positions count from the first letter of the chain named.

The target of the first assay is T1, human IL-4R on cells (HEK-Blue IL-4 cells, TF-1 cells) (human, UniProt P24394 26-825). Description: cell-based or functional assay.
Take B1: the “Inhibiting the proliferation of TF-1 cells by IL-4 (IC50)” value came out at 0.102 µg/mL and the “blocking of the binding of HEK293-Blue IL-4 cell (to IL-4) (IC50)” value came to 0.00507 µg/mL.
Taken in the same sequence, the figures for B2 were 0.418 µg/mL and 0.0798 µg/mL.
Taken in the same sequence, the figures for B3 were 0.0513 µg/mL and 0.000975 µg/mL.

The target in a further assay is T1, human IL-4R on cells (HEK-Blue IL-4 …). Description: cell-based or functional assay. The source holds these as a separate data set.
For the molecule B1, the “Inhibiting the proliferation of TF-1 cells by IL-4 (IC50)” value came out at 0.207 µg/mL and the “blocking the binding of HEK293-Blue IL-4 cell (to IL-4) (IC50)” value (“blocking the binding … (to IL-4) (IC50)” below) was found to be 0.00324 µg/mL.
The like results for B4 were, in that order, 0.0464 µg/mL and 0.00903 µg/mL.
The like results for B5 were, in that order, 0.0203 µg/mL and 0.00202 µg/mL.

The next assay has the same target. Kind of assay: cell-based or functional assay. This is another data set of the same source.
For the molecule B1, the “Inhibiting the proliferation of TF-1 cell by IL-4 (IC50)” value was 0.491 µg/mL and the “blocking the binding … (to IL-4) (IC50)” value was 0.000667 µg/mL.
Taken in the same sequence, the figures for B6 were 0.112 µg/mL and 0.00687 µg/mL.
Regarding B7, the “Inhibiting the proliferation of TF-1 cell by IL-4 (IC50)” value was 0.0296 µg/mL and the “blocking the binding … (to IL-4) (IC50)” value is 0.000943 µg/mL.

Another assay has the same target. Description: cell-based or functional assay. This is another data set of the same source.
For B1, the “Inhibiting the proliferation of TF-1 cell by IL-13 (IC50)” value was determined as 0.0181 µg/mL, the “Inhibiting the proliferation of TF-1 cells by IL-4 (IC50)” value was 0.101 µg/mL, the “blocking the binding of HEK293-Blue cells (with IL-4) (IC50)” value stood at 0.0125 µg/mL and the “blocking the binding of HEK293-Blue cells (with IL-13) (IC50)” value was 0.0148 µg/mL.
The like results for B8 were, in that order, 0.0132 µg/mL, 0.0837 µg/mL, 0.00649 µg/mL and 0.01 µg/mL.
The like results for B9 were, in that order, 0.0137 µg/mL, 0.051 µg/mL, 0.0066 µg/mL and 0.00838 µg/mL.
